B1: TPR t1 (parent)
chain: GACCAAUCUGCCCUCAGAGCUCGAGAACAUCUUCGGAUGCAGAGGAGGCAGGCUUCGGUGGCGCGAUAGCGCCAACGUCCUCAACCUCCAAUGCAUCCCACCACAUGAUGAUGCCUGAAGAGCCUUGGUUUUUUG

We go through 21 variants from the RNAGym collection of RNA variant scans (doi:10.1073/pnas.2313332121).

The variants in the data set derive from B1. As to the kind of experiment: polymerase ribozyme fitness, log enrichment relative to wild type (log ratio); higher = more active; in vitro selection for triplet polymerase activity. The procedure, abridged: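 In triplicate, a single round of in vitro selection was run on each mutant library, PCR-built and transcribed, covering one subunit of a heterodimeric triplet polymerase ribozyme. Frozen incubation at −7 °C followed annealing with a biotinylated primer, partner subunit and triplets, and extended constructs were then gel-excised, streptavidin-captured and taken through RT-PCR. Fitness is the logarithm of genotype enrichment over wild-type enrichment, from inverse-variance-weighted replicate averages of Illumina-sequenced inputs and outputs. […] only genotypes with ≥10 input reads and ≥1 read per output were kept.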
For the variant GACCAAUGUGCCCUCAGAGCUCGAGAACAUCUUCGGAUGCAGAGGAGGCAGGCUUCGGUGACGCGAUAGCGUCAACGUCCUCAACCUCCAAUGCAUCCCACCACAUGAUGAUGCCUGAAGAGCCUUGCUUUUUUG, the “polymerase ribozyme fitness (log ratio)” value is -0.569.
The same measure for GACCAAUGUGCCCUCAGAGCUCGAGAACAUCUUCGGAUGCAGAGGAGACAGGCUUCGGUGGCGCGAUAGCGCCAACGUCCUCAACCUCCAAUGCAGCCCACCACAUGAUGAUGCCUGAAGAGCCUUGGAUUUUUG: -0.823.
Take GACCAAUGUGCCCUCAGAGCUCGAGAACAUCUUCGGAUGCAGAGGAAGCAGGCUUCGGUGGCGUGAUAGCGCCAACGUCCUCAACCUCCAAUGCAUACCACCACAUGAUGAUGCCUGAAUAGCCUUGGUUUUUUG: the “polymerase ribozyme fitness (log ratio)” value was -4.09.
The same measure for GACCAAUGUGCCCUCAGAGCUCGAGAACAUCUUCGGAUGCAGAGGACGCAGGCUUCGGUGGCGCGAUAGCGCCAACGUCCUCAACGUCCAAUGCAUCCCACCACAUGAUGAUGCCUGAAGAGCAUUGGUUUUUUG: 1.6; for GACCAAUGUGCCCUCAGAGCUCGAGAACAUCUUCGGAUGCAGAGUAGGCAGGCUUCGGUGGCGCGAUAGCGCCAACGUCCUCAACCUCCAAUGCAUCCCACCACAUGAUGAUGCCUGAAGAGCCUUGGUUUUUUG: -1.39.
As for GACCAAUGUGCCCUCAGAGCUCGAGAACAUCUUCGGAUGCAGAGGAGGCAGGCUUCAGUGGCGCGAUAGCGCCAACGUCCUCAUCCUCCAAUGCAUCCCACCACAUGAUGAUGCCUGAAUAGCCUUGGUUUUUUG, the “polymerase ribozyme fitness (log ratio)” value was determined as 0.672.
The result for GACCAAUGUGCCCUCAGAGCUCGAGAACAUCUUCGGAUGCAGAGGAGGCAGGCUUCGGUUGCGCGAUAGCGCCAACGUCCUCAAGCUCCAAUGCAUCCCACCACAUGUUGAUGCCUGAAGAGCCUUGGUUAUUUG reads -5.69; that for GACCAAUGUGCCCUCAGAGCUCGAGAACAUCUUCGGAUGCAGAGGAGGCAGGCUUCGGUUGCGCGAUAGCGCCAACGUCCACAACCUCCAAUGCAUCCCACCACAUGAUGAUGCCUGAAGAGACUUGGUUUUUUG, 1.75; that for GACCAAUGUGCCCUCAGAGCUCGAGAACAUCUUCGGAUGCAGAGGAGCCUGGAUUCGGUGGGGCGAUAGCGCCAACGUCCUCAACCUCCAAUGCAUCCCACCACAUGAUGAUGCCUGAAGAGCCUUGGCUUUUUG, -2.9.
For GACCAAUGUGCCCUCAGAGCUCGAGAACAUCUUCGGAUGCAGAGGACGCAGGCUUCGGUAGCGCGAUAGCGCCAACGUCCUCAACCUCCAAUGCAUCCCACCACAUGAUGAUGCCUGAAGAGCCUUGGUUUUUUG, the “polymerase ribozyme fitness (log ratio)” value is -1.03.
The result for GACCAAUGUGCCCUCAGAGCUCGAGAACAUCUUCGGAUGCAGAGGAAGCAGGCUUCGGUGGCGCGAUAGCGCCAACGUCCUCAACCUCCAAUGCAUACCACCACAUGAUGAUGCCUGAAUAGCCUUGGUUUUUUG reads -2.93; that for GACCAAUGUGCCCUCAGAGCUCGAGAACAUCUUCGGAUGCAGAGGAGGCAGGCUUCGGUCGCGCGAUAGCGCCAACGUCCACAACCUCCAAUGCAUCCCACCACAUGAUGAUGCCUGAAGAGACUUGGUUUUUUG, 0.434; that for GACCAAUGUGCCCUCAGAGCUCGAGAACAUCUUCGGAUGCAGAGGAAGCAGGCUUCGGUGGCGCGAUAGCGCCAACGUCCUCAACCUCCAAUGCAUCCCACCACAUGAUGAUGCCUGAAGAGCCUUGGUCUUUUG, 0.26.
As for GACCAAUGUGCCCUCAGAGCUCGAGAACAUCUUCGGAUGCAGAGGAGGCAGGCUUCGGUCGCGCGCUAGCGCCAACGUCCUCAACCUCCAAUGCAUCCCACCACAUGAUGAUGCCUGAAGAGCCUUGGUUGUUUG, the “polymerase ribozyme fitness (log ratio)” value was -3.98.
Regarding GACCAAUGUGCCCUCAGAGCUCGAGAACAUCUUCGGAUGCAGAGGAGGCAGGCUUCGGUUGCGCGAUAGCGCCAACGUCCUCAACCUCCAAUGCAUCCCACCACAUGAUGAUGCCUGAAGAGCCUUGGUUUUUUG, the “polymerase ribozyme fitness (log ratio)” value stood at 0.698.
Turning to GACCAAUGUGCCCUCAGAGCUCGAGAACAUCUUCGGAUGCAGAGGAGGCAGGCUUCGGUAGCGCGAUAGCGCCAACGUCCUCAACCUCCAAUGCAUCCCACCACAUGAUGAUGCCUGAAGAGCCUUGGUUUUUUG, the “polymerase ribozyme fitness (log ratio)” value came to 0.62.
Consider GACCAAUGUGCCCUCAGAGCUCGAGAACAUCUUCGGAUGCAGAGGAGGCAGGCUUCGGUCGCGCGAUAGCGCCAACGUCCUCAACCUCCAAUGCAUCCCACCACAUGAUGAUGCCUGAAGAGCCUUGGUUUUUUG, for which the “polymerase ribozyme fitness (log ratio)” value is 0.0647.
For GACCAAUGUGCCCUCAGAGCUCGAGAACAUCUUCGGAUGCAGAGGACGCAGGCUUCGGUGGCGCGAUAUCGCCAACGUCCUCAACCUCCAAAUCAUCCCACCACAUGAUGAUGCCUGAAGAGACUAGGUUUUUUG, the “polymerase ribozyme fitness (log ratio)” value is -3.8.
GACCAAUGUGCCCUCAGAGCUCGAGAACAUCUUCGGAUGCAGAGGAGGCAGGCUUCGAUGGCGCGAUAGCGCCAACGUCCUCAACCUCCAAUUCAUCCCAUCACAUGAUGAUGCCUGAAGCGCCUUGGUUUUUUG: the “polymerase ribozyme fitness (log ratio)” value was found to be 0.327.
The same measure for GACCAAUGUGCCCUCAGAGCUCGAGAACAUCUUCGGAUGCAGAGGAAGCAGGCUUCGGUGGCGCGAUAGCGCCAACGUCCUCAACCUCCAAUGCAUCCCACCACAUGAUGAUGCCUGAAGAGCCUUGGUUUUUUG: -0.0438; for GACCAAUGUGCCCUCAGAGCUCGAGAACAUCUUCGGAUGCAGAGGAGGCAGGCUUCGGUUGCGCGAUAGUGCCAACGUACUCAACCUCCAAUGCACCCCACCACAUGAUGAUGCCUGAAGAGCCUUGGUUUUUUG: -4.38.
